Measurements published in publication PMC9303331, “Novel agonist and antagonist radioligands for the GLP‐2 receptor. Useful tools for studies of basic GLP‐2 receptor pharmacology” (British Journal of Pharmacology, 2022).
Read-outs that look alike come from different tables or passages of the source.

Columns and labels:
mGLP‐1 receptor [1] = biological target: T1, mGLP‐1 receptor (mouse, UniProt O35659 22-463)
T1 construct: mouse glucagon-like peptide-1 receptor, pcDNA3.1(+) plasmid from ThermoFisher; also called mouse GLP‐1 receptor; source: COS-7, transiently transfected (pcDNA3.1(+)), on whole cells
T1 sequence (looked up): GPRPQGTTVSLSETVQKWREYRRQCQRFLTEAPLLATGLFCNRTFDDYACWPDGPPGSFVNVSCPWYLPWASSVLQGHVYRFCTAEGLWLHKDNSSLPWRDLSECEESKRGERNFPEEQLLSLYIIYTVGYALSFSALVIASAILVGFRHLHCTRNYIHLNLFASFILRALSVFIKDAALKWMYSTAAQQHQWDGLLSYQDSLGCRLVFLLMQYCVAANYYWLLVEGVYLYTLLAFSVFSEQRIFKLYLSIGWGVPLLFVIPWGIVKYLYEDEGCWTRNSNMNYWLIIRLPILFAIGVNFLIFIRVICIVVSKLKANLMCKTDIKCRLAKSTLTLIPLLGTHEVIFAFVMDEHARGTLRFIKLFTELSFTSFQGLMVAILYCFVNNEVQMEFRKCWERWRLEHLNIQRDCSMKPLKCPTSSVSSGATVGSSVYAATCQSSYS

mGLP‐1 receptor [2] = biological target: T1, mGLP‐1 receptor; remark: listed apart in the source
rGLP‐2 receptor [3] = biological target: T2, rGLP‐2 receptor (rat, UniProt Q9Z0W0 1-550); settings: one partner purified
T2 construct: rat glucagon-like peptide-2 receptor, pcDNA3.1(+) plasmid from ThermoFisher; also called rat GLP‐2 receptor; source: COS-7, transiently transfected (pcDNA3.1(+)), on whole cells
T2 sequence (looked up): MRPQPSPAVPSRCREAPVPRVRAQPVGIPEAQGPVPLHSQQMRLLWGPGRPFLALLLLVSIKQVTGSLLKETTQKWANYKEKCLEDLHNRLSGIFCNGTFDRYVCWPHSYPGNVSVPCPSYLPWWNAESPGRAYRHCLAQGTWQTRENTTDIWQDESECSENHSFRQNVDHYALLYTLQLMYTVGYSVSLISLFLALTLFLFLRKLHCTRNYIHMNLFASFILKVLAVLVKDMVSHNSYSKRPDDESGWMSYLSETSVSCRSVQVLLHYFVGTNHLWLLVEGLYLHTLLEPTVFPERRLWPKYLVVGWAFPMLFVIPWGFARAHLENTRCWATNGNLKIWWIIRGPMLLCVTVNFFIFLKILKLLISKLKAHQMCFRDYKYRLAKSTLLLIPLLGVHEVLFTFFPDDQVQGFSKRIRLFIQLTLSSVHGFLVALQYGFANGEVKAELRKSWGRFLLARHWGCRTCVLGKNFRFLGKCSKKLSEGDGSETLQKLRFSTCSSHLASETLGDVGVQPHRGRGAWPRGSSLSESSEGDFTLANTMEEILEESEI

mGLP‐2 receptor [4] = biological target: T3, mGLP‐2 receptor (mouse, UniProt Q5IXF8 1-512); settings: one partner purified
T3 construct: mouse glucagon-like peptide-2 receptor, pcDNA3.1(+) plasmid from ThermoFisher; also called mouse GLP‐2 receptor; source: COS-7, transiently transfected (pcDNA3.1(+)), on whole cells
T3 sequence (looked up): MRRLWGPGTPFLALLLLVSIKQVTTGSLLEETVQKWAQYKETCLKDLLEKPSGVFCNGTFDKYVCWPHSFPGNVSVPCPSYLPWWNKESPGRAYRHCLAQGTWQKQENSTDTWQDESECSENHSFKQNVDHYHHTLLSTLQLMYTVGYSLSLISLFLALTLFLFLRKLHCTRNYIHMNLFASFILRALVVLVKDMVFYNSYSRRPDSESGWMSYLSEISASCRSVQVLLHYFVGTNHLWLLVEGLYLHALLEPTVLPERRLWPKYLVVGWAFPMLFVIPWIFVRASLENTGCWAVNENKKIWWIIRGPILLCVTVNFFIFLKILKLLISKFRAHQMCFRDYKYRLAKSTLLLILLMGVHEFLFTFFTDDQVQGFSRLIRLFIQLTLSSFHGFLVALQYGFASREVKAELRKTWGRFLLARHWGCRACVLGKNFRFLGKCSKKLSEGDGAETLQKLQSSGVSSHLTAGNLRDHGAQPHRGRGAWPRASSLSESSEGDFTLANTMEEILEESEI

mGLP‐1 receptor [5] = biological target: T1, mGLP‐1 receptor; settings: one partner purified
rGLP‐2 receptor [6] = biological target: T2, rGLP‐2 receptor; settings: one partner purified; remark: listed apart in the source
mGLP‐2 receptor [7] = biological target: T3, mGLP‐2 receptor; settings: one partner purified; remark: listed apart in the source
mGLP‐1 receptor [8] = biological target: T1, mGLP‐1 receptor; settings: one partner purified; remark: listed apart in the source

Molecule: [^125I]‐hGLP‐2(3–33,M10Y) (peptide)
- % max (specific binding of the radioligand, normalised to its binding to the mGLP-2 receptor) (mGLP‐1 receptor [1]): 93.3%

Molecule: [^125I]‐hGLP‐2(1–33,M10Y) (peptide)
- % max (specific binding of the radioligand, normalised to its binding to the mGLP-2 receptor) (mGLP‐1 receptor [2]): 84.5%

B1: hGLP‐2(1–33) (peptide)
chain: HADGSFSDEMNTILDNLAARDFINWLIQTKITD
- Ki (rGLP‐2 receptor [3]): 5.4 nM
- pIC50 (rGLP‐2 receptor [3]): 8.3
- Ki (mGLP‐2 receptor [4]): 6.6 nM
- pIC50 (mGLP‐2 receptor [4]): 8.2
- Ki (mGLP‐1 receptor [5]): 208 nM
- pIC50 (mGLP‐1 receptor [5]): 6.7
- Ki (rGLP‐2 receptor [6]): 6.5 nM
- pIC50 (rGLP‐2 receptor [6]): 8.2
- Ki (mGLP‐2 receptor [7]): 18 nM
- pIC50 (mGLP‐2 receptor [7]): 7.7
- Ki (mGLP‐1 receptor [8]): 183 nM
- pIC50 (mGLP‐1 receptor [8]): 6.7
